Test results taken from patent publication US20030073218.

System: RR-Src peptide

Substance | KM (mM) for protein substrate RR-Src, ATP saturated [mM] | KM (mM) for protein substrate RR-Src, N^6-(cyclopentyl)ATP saturated [mM]
GST-XD4 (glutathione S-transferase fusion of the XD4 fragment of v-Src, wild-type catalytic domain) | 2.6 | –
GST-XD4(V323A, I338A) | 3.1 | 2.1
